The subject of data set [1] is small intestine growth in rats. In words: Intestinotrophic growth in normal rats (small intestine weight and length). Type of data set: in vivo, rat. On the procedure:
To determine the intestinotrophic properties of GLP2-XTEN, small intestine growth in rats was measured as a primary pharmacodynamic endpoint. […] GLP2-2G-XTEN was dosed at 25 nmol/kg once daily for 12 days. After sacrifice, a midline incision was made, the small intestines were removed, stretched to their maximum length and the length recorded. The fecal material was flushed from the lumen and the small intestinal wet weight recorded. The small intestine length and weight data were analyzed with an ANOVA model with a Tukey/Kramer post-hoc test for pairwise comparisons, with significance at p=0.05.

The target in data set [2] is T1, GLP2 G-protein coupled receptor (Homo sapiens, UniProt O95838).
T1 construct: host or cells: Chem-11 cell
T1 sequence (O95838 1-553): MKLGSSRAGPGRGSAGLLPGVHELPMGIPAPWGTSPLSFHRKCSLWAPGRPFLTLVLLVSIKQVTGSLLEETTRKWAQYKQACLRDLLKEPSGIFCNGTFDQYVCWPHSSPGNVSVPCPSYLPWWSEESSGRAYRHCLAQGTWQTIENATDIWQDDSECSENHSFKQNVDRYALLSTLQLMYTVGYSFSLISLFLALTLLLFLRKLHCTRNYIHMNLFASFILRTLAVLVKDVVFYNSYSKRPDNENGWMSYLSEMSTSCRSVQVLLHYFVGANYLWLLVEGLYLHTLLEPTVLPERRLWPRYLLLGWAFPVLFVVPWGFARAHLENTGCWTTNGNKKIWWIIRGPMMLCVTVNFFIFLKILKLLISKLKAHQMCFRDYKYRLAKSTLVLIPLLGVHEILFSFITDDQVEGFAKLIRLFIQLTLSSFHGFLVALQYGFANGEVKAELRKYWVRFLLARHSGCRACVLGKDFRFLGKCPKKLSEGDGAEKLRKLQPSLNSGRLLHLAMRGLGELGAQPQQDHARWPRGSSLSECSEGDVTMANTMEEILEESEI
The data set is described as follows: GLP2R calcium flux potency assay (GPCR Profiler, in vitro receptor binding). Particulars: calcium flux GLP2R cell assay. Type of data set: cell-based. On the procedure: A receptor binding assay was performed using a GPCR Profiler assay (Millipore) to assess GLP2-2G-XTEN preparations (including AP690). The assay employed a transfected GLP2R cell line (Millipore, Cat #HTS164C) consisting of a Chem-11 human cell stably transfected with the GLP2 G-protein coupled receptor and a G alpha protein that stimulates calcium flux upon agonism of the GLP2 receptor.
(In general: Calcium flux is commonly read through the fluorescence of an indicator in the cells.)

Details of data set [3]: species or system human. The source says:
The cumulative results of the PK analyses were used to perform allometric scaling of GLP2-2G_AE864 terminal half-life, clearance and volume of distribution using data from three species (mouse, rat and monkey). Pharmacokinetic values for a 70 kg human were predicted by extrapolating the log linear relationship between body weight and each pharmacokinetic parameter, as shown in FIG. 17. […] The terminal half-life in humans can also be estimated using the predicted values for clearance (Cl) and volume of distribution (Vd) as 0.693×Vd/Cl.

The conditions of data set [4]: cynomolgus monkey, in vivo. The method, then: The fusion protein GLP2-2G-XTEN_AE864 was evaluated for its pharmacokinetic properties in male cynomolgus monkeys following either subcutaneous or intravenous administration of the fusion protein at a single dosage level. Three male cynomolgus monkeys were injected IV and 3 male cynomolgus monkeys were injected SC with 2 mg/kg (25 nmol/kg) GLP2-2G-XTEN at time 0. Blood samples were collected from each monkey into prechilled heparinized tubes at pre-dose and at approximately 0.083 h (5 min), 1, 2, 4, 8, 24, 48, 72, 96, 120, 168, 216, 264, and 336 hours after administration of the fusion protein for the first phase of the study. Animals were allowed to “wash-out” for a 6 week period (4 weeks post-last collection time point of Phase 1), the groups were crossed over (SC to IV and IV to SC), and dosed again with the same dose of GLP2-2G-XTEN fusion protein. Blood samples were collected at pre-dose and at approximately 0.083 h (5 min), 1, 2, 4, 8, 24, 48, 72, 96, 120, 168, 216, 264, 336, 384, 432, and 504 hours post-dose in the second phase of the study. All blood samples were processed into plasma by centrifugation and split into two aliquots for analysis by ELISA. The samples were analyzed for fusion protein concentration, performed by anti-GLP2/anti-XTEN ELISA (AS1705) and the results were analyzed using WinNonLin to obtain the PK parameters.

Data set [5] in a line: Analytical size exclusion HPLC of GLP2-2G-XTEN (apparent molecular weight). Type of data set: physicochemical. On the procedure:
Gel filtration analysis was performed using a Phenomenex BioSep-SEC-s4000 (7.8 mm×600 mm) column. 20 μg or AP690 GLP2-2G-XTEN fusion protein were analyzed at a flowrate of 0.5 ml/min with 50 mM Phosphate pH 6.5, 300 mM NaCl mobile phase. Elution was monitored using OD215 nm. Column calibration was performed using a size exclusion check standard from Phenomenex, with the following markers: thyroglobulin (670 kDa), IgG (156 kDa), BSA (66 kDa) and ovalbumin ([…]). The result (FIG. 11B) indicated an apparent molecular weight of 1002 kDa for the fusion protein of 83.1 kDa actual weight, for an apparent molecular weight factor of […].
In general terms: In gel filtration, larger molecules generally elute earlier.

Where [6] appears, read: normal Sprague-Dawley rats, SC 12 days, peptide 12.5 nmol/kg twice daily, fusion protein 25 nmol/kg once daily.

Read-outs that look alike come from different tables or passages of the source. Marks after values point to notes of the source that are not given here.

B1: GLP2-2G-XTEN_AE864: fusion protein of GLP-2 with glycine at position 2 linked at the C-terminus to XTEN AE864; sequence of FIG. 28 (SEQ ID NO: 798) (protein)
chain: HGDGSFSDEMNTILDNLAARDFINWLIQTKITDGGSPAGSPTSTEEGTSESATPESGPGTSTEPSEGSAPGSPAGSPTSTEEGTSTEPSEGSAPGTSTEPSEGSAPGTSESATPESGPGSEPATSGSETPGSEPATSGSETPGSPAGSPTSTEEGTSESATPESGPGTSTEPSEGSAPGTSTEPSEGSAPGSPAGSPTSTEEGTSTEPSEGSAPGTSTEPSEGSAPGTSESATPESGPGTSTEPSEGSAPGTSESATPESGPGSEPATSGSETPGTSTEPSEGSAPGTSTEPSEGSAPGTSESATPESGPGTSESATPESGPGSPAGSPTSTEEGTSESATPESGPGSEPATSGSETPGTSESATPESGPGTSTEPSEGSAPGTSTEPSEGSAPGTSTEPSEGSAPGTSTEPSEGSAPGTSTEPSEGSAPGTSTEPSEGSAPGSPAGSPTSTEEGTSTEPSEGSAPGTSESATPESGPGSEPATSGSETPGTSESATPESGPGSEPATSGSETPGTSESATPESGPGTSTEPSEGSAPGTSESATPESGPGSPAGSPTSTEEGSPAGSPTSTEEGSPAGSPTSTEEGTSESATPESGPGTSTEPSEGSAPGTSESATPESGPGSEPATSGSETPGTSESATPESGPGSEPATSGSETPGTSESATPESGPGTSTEPSEGSAPGSPAGSPTSTEEGTSESATPESGPGSEPATSGSETPGTSESATPESGPGSPAGSPTSTEEGSPAGSPTSTEEGTSTEPSEGSAPGTSESATPESGPGTSESATPESGPGTSESATPESGPGSEPATSGSETPGSEPATSGSETPGSPAGSPTSTEEGTSTEPSEGSAPGTSTEPSEGSAPGSEPATSGSETPGTSESATPESGPGTSTEPSEGSAPG
For B1, the “small intestine growth compared with GLP2-2G peptide” value in data set [1] (equal nmol/kg dosing) was “as good or better than GLP2-2G peptide”. Further, in data set [1] (setting [6]), the “increase in small intestine length” value was determined as 9% and the “increase in small intestine weight” value is 31%. For the same molecule, in data set [1] (normal rats, 25 nmol/kg once daily for 12 days), the “increase in small intestine length” value is given as 10 cm. Moreover, the “potency compared to GLP2-2G” value in data set [2] was “about 2%”. In addition, in data set [3], the Cl is on record as 17* ml/hr, the “T ½” value was 240* hr and the Vd was 91* mL/kg. Further, in data set [4], the Cl was found to be 1.6 mL/h, the “T ½” value stood at 125 h and the Vd amounted to 0.098 L/kg. Moreover, in data set [4] (iv, 2 mg/kg), the AUCInf is listed as 3,700,000 hr * ng/mL, the Cl turned out to be 1.9 mL/h, the T ½ was found to be 110.0 h and the Vd is 0.09 L/kg. Moreover, in data set [4] (sc, 2 mg/kg), the AUCInf is 3,400,000 hr * ng/mL, the T ½ amounted to 120.0 h and the Vd is 0.11 L/kg. The apparent molecular weight in data set [5] (SEC, BioSep-SEC-s4000, 50 mM Phosphate pH 6.5, 300 mM NaCl, lot AP690) is 1002 kDa. In addition, in data set [5] (apparent vs 83.1 kDa actual weight), the “apparent molecular weight factor” value is listed as 12.5.

Source of the values: US20250388643A1, “GLUCAGON-LIKE PEPTIDE-2 COMPOSITIONS AND METHODS OF MAKING AND USING SAME” (Amunix Pharmaceuticals, Inc., priority 2011, published 2025).
